Measured values taken from article PMC7997955.

Biological target: Full-length human AURKA^T288V (human) (UniProt O14965)
Test: fluorescence polarisation; competitive displacement: 5 nM FITC-Tpx2^1–43 and 35 nM AURKA kept constant, unlabeled competitor (Bora or Tpx2) varied; 25 mM HEPES pH 7.5, 50 mM NaCl, 10 mM MgCl2, 0.1 mg/mL BSA, 0.01% Brij, 3 mM ADP, 2 mM DTT

Chain of Full-length human AURKA^T288V (human) (O14965 other isoform, or with tags, fused parts or gaps T288V | T288V): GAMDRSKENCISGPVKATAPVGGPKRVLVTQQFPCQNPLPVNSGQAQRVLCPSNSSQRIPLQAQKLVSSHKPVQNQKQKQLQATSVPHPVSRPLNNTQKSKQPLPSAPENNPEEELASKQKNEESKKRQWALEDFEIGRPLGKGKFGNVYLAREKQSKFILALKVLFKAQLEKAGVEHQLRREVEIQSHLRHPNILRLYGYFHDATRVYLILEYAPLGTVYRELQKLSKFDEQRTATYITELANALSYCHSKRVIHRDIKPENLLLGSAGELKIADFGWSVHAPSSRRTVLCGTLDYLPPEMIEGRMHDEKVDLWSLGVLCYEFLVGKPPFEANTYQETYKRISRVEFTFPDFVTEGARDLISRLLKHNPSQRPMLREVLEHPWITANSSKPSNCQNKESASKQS

- fold less efficient displacement of FITC-Tpx2^1–43 than pBora^1–224: 20 fold
Substance: pBora^18–120 (from UniProt Q6PGQ7 18-120) (domain or fragment)
